Test results reported in patent US6344203B1, “Mimicking peptides in cancer therapy” (The Austin Research Institute, priority 1995, dated 2002).
No end group written: not given here.

T1: IB4 lectin (Griffonia simplicifolia, UniProt Q8W1R6)
T1 sequence (Q8W1R6 1-247): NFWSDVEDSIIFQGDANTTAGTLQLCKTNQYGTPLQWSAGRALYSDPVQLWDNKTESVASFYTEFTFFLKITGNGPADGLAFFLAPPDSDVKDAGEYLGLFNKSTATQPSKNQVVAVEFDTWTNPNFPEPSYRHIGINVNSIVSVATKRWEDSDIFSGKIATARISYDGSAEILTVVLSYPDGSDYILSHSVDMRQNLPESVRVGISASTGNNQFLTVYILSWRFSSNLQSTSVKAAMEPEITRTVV


What was measured:
IB4 lectin [1] = target: T1, IB4 lectin; experiment: Elisa: inhibition of IB4 lectin binding to Galα(1,3)Gal-BSA; conditions: Elisa, peptide concentration 5 mM (FIG. 8a)
Method: (§1) 50 μl of either purified anti-Galα(1,3)Ga IgG or biotinylated IB4 lectin was added to the wells, incubated for 45 minutes at 22° C., washed with PBS-0.05% Tween 20, and 50 μl of the relevant IIRP conjugate added and incubated for a further 45 minutes before washing and the addition of 50 μl of substrate (2,2′ Azino-di-B-ethylbenzthiozoline (Zymed, San Francisco, Calif.)) and reading the OD405.
(§2) An Elisa was established to calculate the relative “affinity” of the Gal pep 1 (SEQ ID No. 1) for the IB4 lectin and for human anti-Galα(1,3)Gal antibodies, and to compare these with the affinities for α-galactosyl sugars.
(§3) Peptides or carbohydrates were examined cytofluorographically for their ability to inhibit antibody/lectin binding to the cell surface using a FACSCAN flow cytometer (Becton Dickinson, USA)[20]: 25 μl of inhibitor was mixed with 25 μl of antibody of lectin and incubated at 22° C. for 3 hours (peptides) or at 4° C. for 16 hours (carbohydrates)[14], prior to addition of appropriate targets. An Elisa assay was used to calculate the relative affinities of the sugars or the peptides for both IB4 lectin and antibodies, and were defined as the molar concentration of inhibitor giving 50% inhibition of the maximal binding of lectin or antibody.

IB4 lectin [2] = target: T1, IB4 lectin; experiment: Cytofluorographic inhibition of IB4 lectin binding to PIEC cells; assay type: cell-based
Method: FIGS. 3(A-C). […] (A); Staining of PIEC cells with IB4 lectin (1 μg/ml). (B) Staining of PIEC cells with NHS (final dilution of 1/50) and anti-human Ig. (C) Staining of PBL with IB4 lectin (μg/ml). Peptides were used at 5 mM (A and C) or at 20 mM (B). In each panel profile “a” represents binding in the presence of Gal pep 1 (SEQ ID No. 1), and profile “b” the binding in the presence of CD48 pep 1 (SEQ ID No. 11).
FIGS. 6(A-B). […] Varying concentrations of peptides (shown in mM on horizontal axis) were explained for ability to inhibit the binding of IB4 lectin (1 μg/ml) to tie PIEC cells using cytofluorographic analysis. (a) Gal pep 1 (SEQ ID No. 1) (□), Muc pep 1 (SEQ ID No. 15) (∘).
FIG. 7. […] All peptides used at 5 mM, using cytofluorograhic analysis. Inhibition calculated relative to no peptide control.
The binding of lectin or antibody to the surface of pig cells was detected by hemagglutination, cytotoxicity or flow cytometry using the FACSCAN flow cytometer (Becton Dickinson, Mountain View, Calif.).
as §3

[3] = system: human anti-Galα(1,3)Gal IgG antibodies; experiment: Elisa: inhibition of anti-Galα(1,3)Gal IgG binding to Galα(1,3)Gal-BSA; conditions: for Inhibition of binding of anti-Galα(1,3)Gal IgG to Galα(1,3)Gal-BSA: Elisa, peptides at 5 mM (FIG. 8b)
Method: as §1, §2, §3

[4] = target: IB4 lectin from Griffonia simplicifolia (Griffonia simplicifolia); experiment: competition ELISA (I50): peptide inhibits biotinylated IB4 binding to Galα(1,3)Gal-BSA
[5] = target: purified human anti-Galα(1,3)Gal IgG antibodies (human); experiment: competition ELISA (I50): peptide inhibits anti-Galα(1,3)Gal IgG binding to Galα(1,3)Gal-BSA
[6] = target: IB4 lectin from Griffonia simplicifolia (Griffonia simplicifolia); experiment: flow cytometry, IB4 (1 µg/ml) on PIEC cells
[7] = target: BC1 anti-MUC1 monoclonal antibody; experiment: flow cytometry, competition with MUC1 on MUC1+3T3 (MOR5) cells
[8] = target: human natural antibodies in normal human serum (NHS) (human); experiment: flow cytometry, NHS (1/50) natural antibodies on PIEC cells; no inhibition at lower concentrations
[9] = target: IB4 lectin from Griffonia simplicifolia (Griffonia simplicifolia); experiment: inhibition of IB4 reaction with galactomannan (not shown)
[10] = target: IB4 lectin from Griffonia simplicifolia (Griffonia simplicifolia); experiment: flow cytometry, IB4 on pig PBL
[11] = target: human natural antibodies in normal human serum (NHS) (human); experiment: cell-based or functional assay

Molecule	IC50 [4]	IC50 [5]	Inhibition of binding of IB4 to Galα(1,3)Gal-BSA (IB4 lectin [1])	also measured
LSGVRFSAARTAHPLPQKH [TNF pep 1, control peptide, MURINE TNFβ]	–	–	did not inhibit	–
TGFNQYKTEAASRVNL [Muc pep 8, human Muc1 COOH to VNTR]	–	–	–	Inhibition of IB4 lectin binding to PIEC cells (IB4 lectin [2]; peptides at 5 mM (FIG. 7)): inhibited
CPAHGVTSAPDTRPAPGSTAP [Muc pep 1]	–	–	complete inhibition	Inhibition of IB4 lectin binding to PIEC cells (IB4 lectin [2]; to a peptide concentration of 0.125 mM (FIG. 6a)): almost complete inhibition; Inhibition of binding of anti-Galα(1,3)Gal IgG to Galα(1,3)Gal-BSA [3]: inhibited; IC50 ([3]; Table 3, anti-Galα(1,3)Gal antibody (IgG) 87 μgs/ml, read-out: I50 Anti-Galα(1,3)Gal): 2500 µM
RYHHYSSNFSIPKANHSHSGDYYCKGSL [FcR pep 1, control peptide, MURINE FCRIIβ2]	–	–	–	Inhibition of binding of anti-Galα(1,3)Gal IgG to Galα(1,3)Gal-BSA [3]: had no effect
CC(C)[C@H](NC(=O)[C@H](CO)NC(=O)[C@H](CO)NC(=O)[C@H](CCCNC(=N)N)NC(=O)[C@H](CCC(N)=O)NC(=O)[C@@H](NC(=O)[C@H](C)NC(=O)[C@H](CO)NC(=O)[C@@H](NC(=O)[C@H](CCC(=O)O)NC(=O)[C@H](CCCCN)NC(=O)[C@H](CCC(=O)O)NC(=O)CNC(=O)CNC(=O)[C@@H]1CCCN1C(=O)[C@@H](NC(=O)[C@H](CO)NC(=O)[C@H](CO)NC(=O)[C@H](C)NC(=O)[C@H](Cc1c[nH]cn1)NC(=O)CNC(=O)[C@H](CO)NC(=O)CNC(=O)[C@@H](N)[C@@H](C)O)[C@@H](C)O)[C@@H](C)O)[C@@H](C)O)C(=O)N1CCC[C@H]1C(=O)O [Muc pep 6]	–	–	complete inhibition	Inhibition of IB4 lectin binding to PIEC cells (IB4 lectin [2]; peptides at 5 mM (FIG. 7)): partial inhibition
KYPTTTPISTTTMVTPTPTPTGTQTPTTT [Muc pep 9, human Muc2 VNTR]	–	–	no inhibition	Inhibition of IB4 lectin binding to PIEC cells (IB4 lectin [2]; peptides at 5 mM (FIG. 7)): did not inhibit
CPAHGVTSAPDTRPAPGSTAP [Muc pep 1]	78 µM	2500 µM	–	concentration down to which inhibition was almost complete [6]: 0.125 mM
TGSGHASSTPGGEKETSAQRSSVP [Muc pep 6]	1250 µM	–	–	–
DAHWESWL [Gal pep 1 (DAHWESWL), synthetic peptide]	300 µM	10000 µM	–	lowest peptide concentration that inhibited BC1 binding to MUC1+3T3 cells [7]: 0.156 mM; peptide concentration at which inhibition occurred [8]: 20 mM; IC50 [9]: 5000 µM; peptide concentration that blocked IB4 binding to PBL [10]: 5 mM; blocking of hemagglutination of pig RBC by NHS [11]: 5 mM

More lines, main results first:

IC50 [4]	IC50 [5]	Molecule	Inhibition of binding of IB4 to Galα(1,3)Gal-BSA (IB4 lectin [1])	also measured
156 µM	2500 µM	TSSASTGHATPLPVTP [Muc pep 11]	–	–
> 20000 µM	> 20000 µM	WEADLHWS [Scram pep 1]	–	–
> 20000 µM	> 20000 µM	YTFDQKIVEWDSRKSKC [CD48 pep 1]	–	–
